# According to IntAct's records for PubMed 16115628:
# B1: 1-phosphatidylinositol 4,5-bisphosphate phosphodiesterase delta-1 (Homo sapiens), P51178 (parent)
# chain: MDSGRDFLTLHGLQDDEDLQALLKGSQLLKVKSSSWRRERFYKLQEDCKTIWQESRKVMRTPESQLFSIEDIQEVRMGHRTEGLEKFARDVPEDRCFSIVFKDQRNTLDLIAPSPADAQHWVLGLHKIIHHSGSMDQRQKLQHWIHSCLRKADKNKDNKMSFKELQNFLKELNIQVDDSYARKIFRECDHSQTDSLEDEEIEAFYKMLTQRVEIDRTFAEAAGSGETLSVDQLVTFLQHQQREEAAGPALALSLIERYEPSETAKAQRQMTKDGFLMYLLSADGSAFSLAHRRVYQDMGQPLSHYLVSSSHNTYLLEDQLAGPSSTEAYIRALCKGCRCLELDCWDGPNQEPIIYHGYTFTSKILFCDVLRAIRDYAFKASPYPVILSLENHCTLEQQRVMARHLHAILGPMLLNRPLDGVTNSLPSPEQLKGKILLKGKKLGGLLPPGGEGGPEATVVSDEDEAAEMEDEAVRSRVQHKPKEDKLRLAQELSDMVIYCKSVHFGGFSSPGTPGQAFYEMASFSENRALRLLQESGNGFVRHNVGHLSRIYPAGWRTDSSNYSPVEMWNGGCQIVALNFQTPGPEMDVYQGRFQDNGACGYVLKPAFLRDPNGTFNPRALAQGPWWARKRLNIRVISGQQLPKVNKNKNSIVDPKVTVEIHGVSRDVASRQTAVITNNGFNPWWDTEFAFEVVVPDLALIRFLVEDYDASSKNDFIGQSTIPLNSLKQGYRHVHLMSKNGDQHPSATLFVKISLQD
# Variants of: B1
# Conditions: with imb1_human KPNB1, Q14974
# imb1_human KPNB1, Q14974, sequence (Q14974 whole entry): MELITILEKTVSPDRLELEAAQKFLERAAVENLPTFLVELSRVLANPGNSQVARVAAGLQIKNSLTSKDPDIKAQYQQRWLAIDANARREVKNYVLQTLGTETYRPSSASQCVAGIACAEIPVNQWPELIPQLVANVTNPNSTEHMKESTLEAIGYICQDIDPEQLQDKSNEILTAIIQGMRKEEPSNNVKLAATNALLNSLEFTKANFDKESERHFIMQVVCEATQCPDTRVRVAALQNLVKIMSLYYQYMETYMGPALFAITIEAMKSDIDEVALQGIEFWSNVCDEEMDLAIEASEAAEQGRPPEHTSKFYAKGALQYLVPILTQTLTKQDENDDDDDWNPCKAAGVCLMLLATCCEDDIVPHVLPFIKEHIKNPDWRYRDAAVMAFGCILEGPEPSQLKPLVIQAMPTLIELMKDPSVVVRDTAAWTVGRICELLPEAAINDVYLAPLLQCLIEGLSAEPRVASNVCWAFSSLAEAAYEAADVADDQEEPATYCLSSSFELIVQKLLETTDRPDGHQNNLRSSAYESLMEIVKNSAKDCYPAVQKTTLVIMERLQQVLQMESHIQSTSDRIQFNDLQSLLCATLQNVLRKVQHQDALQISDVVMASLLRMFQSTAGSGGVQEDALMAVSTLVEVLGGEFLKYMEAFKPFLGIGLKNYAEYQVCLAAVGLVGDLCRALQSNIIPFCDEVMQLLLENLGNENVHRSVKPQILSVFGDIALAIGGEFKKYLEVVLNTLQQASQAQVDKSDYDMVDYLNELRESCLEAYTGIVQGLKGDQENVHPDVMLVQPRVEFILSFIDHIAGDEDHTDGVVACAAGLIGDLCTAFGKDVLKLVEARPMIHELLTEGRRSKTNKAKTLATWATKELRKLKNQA
row,effect of a mutation on the interaction,Variant
1,decreasing interaction,E341A
